# Results reported in patent US20200291118A1.
# Like-named read-outs stand apart in the source and are kept apart here.
# Biological target: hPD-1-hIgGFc antigen (human), Q15116
# Experiment: ELISA on coated hPD-1-hIgGFc, ligand PD-L2-his tag 0.3 µg/ml detected; no antibody (row 'blank' under HX009-5)
# hPD-1-hIgGFc antigen (human), Q15116, sequence (Q15116 25-167 limits assumed): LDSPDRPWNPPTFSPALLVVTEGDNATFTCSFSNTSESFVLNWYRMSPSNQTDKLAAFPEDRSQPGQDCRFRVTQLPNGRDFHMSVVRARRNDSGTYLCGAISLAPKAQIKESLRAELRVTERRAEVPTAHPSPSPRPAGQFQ
binder,measurement,setting,value
"PD-L2-his tag, Q9BQ51 20-220 (ligand, UniProt Q9BQ51 20-220, looked up, not shown: small tags and cut ends) LFTVTVPKELYIIEHGSNVTLECNFDTGSHVNLGAITASLQKVENDTSPHRERATLLEEQLPLGKASFHIPQVQVRDEGQYQCIIIYGVAWDYKYLTLKVKASYRKINTHILKVPETDEVELTCQATGYPLAEVSWPNVSVPANTSHSRTPEGLYQVTSVLRLKPPPGRNFSCVFWNTHVRELTLASIDLQSQMEPRTHPT",absorbance at 450 nm,,1.1
same,absorbance at 450 nm,remark: other sources report otherwise,1.09
